Drawing on article PMC8991199 (2022), this text covers Kd for two molecules.

B2: S100A5 (natural protein)
chain: METPLEKALTTMVTTFHKYSGREGSKLTLSRKELKELIKKELCLGEMKESSIDDLMKSLDKNSDQEIDFKEYSVFLTMLCMAYNDFFLEDNK

In assay [1] the target is B2. The assay can be described thus: FP; competition against fIF.
The target in assay [2] is B2. The assay can be described thus: FP; competition against fWL.
The target of assay [3] is fIF, fluorescently labelled H14 foldamer IF (β-peptidic hexamer: β3-amino acids with proteinogenic side chains (I, F) in positions 2 and 5, ACHC (trans-2-aminocyclohexancarboxylic acid) residues; 5(6)-carboxyfluorescein on the ε-amino group of …). Nature of the assay: FP.
In assay [4] the target is fWL, fluorescently labelled H14 foldamer WL (β-peptidic hexamer: β3-amino acids with proteinogenic side chains (W, L) in positions 2 and 5, ACHC (trans-2-aminocyclohexancarboxylic acid) residues; 5(6)-carboxyfluorescein on the ε-amino group of …). Nature of the assay: FP.

B1: TRTK12 peptide (peptide)
chain: TRTKIDWNKILS
One may read the Kd as the concentration at which binding is half-saturated. Read a high Kd as weaker binding. For B1, the figures for the Kd with S100A5 [1] and with S100A5 [2] were 2.4 µM and 4.9 µM, respectively.
For B2, the Kd in assay [3] stood at 32 µM; in assay [4], 7.9 µM.
